Data from patent US20050080234A1 (Takeda / Millennium, published 2005).
Like-named read-outs stand apart in the source and are kept apart here.

Columns and labels:
Experiment in all cases: cell-based or functional assay
[1] = molecular target: T1, mouse C140 receptor mutant 35Arg (mouse, UniProt P55086 32-399)
T1 sequence: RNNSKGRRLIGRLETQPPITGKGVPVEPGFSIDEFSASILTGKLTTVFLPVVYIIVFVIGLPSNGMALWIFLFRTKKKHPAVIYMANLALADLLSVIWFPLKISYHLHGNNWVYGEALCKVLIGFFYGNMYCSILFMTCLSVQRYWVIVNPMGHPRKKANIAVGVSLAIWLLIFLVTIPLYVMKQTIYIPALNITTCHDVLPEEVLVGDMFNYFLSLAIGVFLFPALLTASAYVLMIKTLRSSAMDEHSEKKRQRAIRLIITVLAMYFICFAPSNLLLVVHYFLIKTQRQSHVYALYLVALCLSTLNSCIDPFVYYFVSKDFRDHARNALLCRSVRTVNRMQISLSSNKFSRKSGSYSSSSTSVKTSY

[2] = molecular target: T2, mouse C140 receptor mutant 35His (mouse, UniProt P55086 32-399)
T2 sequence: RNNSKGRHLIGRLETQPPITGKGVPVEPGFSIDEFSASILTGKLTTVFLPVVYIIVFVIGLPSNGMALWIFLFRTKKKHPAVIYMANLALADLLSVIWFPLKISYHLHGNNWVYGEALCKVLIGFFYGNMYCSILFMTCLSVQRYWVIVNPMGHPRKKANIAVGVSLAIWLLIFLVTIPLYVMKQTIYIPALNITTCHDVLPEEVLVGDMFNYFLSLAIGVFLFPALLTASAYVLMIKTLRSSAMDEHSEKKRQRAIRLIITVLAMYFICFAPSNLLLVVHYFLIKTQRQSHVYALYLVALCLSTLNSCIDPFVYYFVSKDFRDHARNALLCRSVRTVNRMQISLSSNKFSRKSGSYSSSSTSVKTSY

[3] = molecular target: T3, mouse C140 receptor mutant 35Pro (mouse, UniProt P55086 32-399)
T3 sequence: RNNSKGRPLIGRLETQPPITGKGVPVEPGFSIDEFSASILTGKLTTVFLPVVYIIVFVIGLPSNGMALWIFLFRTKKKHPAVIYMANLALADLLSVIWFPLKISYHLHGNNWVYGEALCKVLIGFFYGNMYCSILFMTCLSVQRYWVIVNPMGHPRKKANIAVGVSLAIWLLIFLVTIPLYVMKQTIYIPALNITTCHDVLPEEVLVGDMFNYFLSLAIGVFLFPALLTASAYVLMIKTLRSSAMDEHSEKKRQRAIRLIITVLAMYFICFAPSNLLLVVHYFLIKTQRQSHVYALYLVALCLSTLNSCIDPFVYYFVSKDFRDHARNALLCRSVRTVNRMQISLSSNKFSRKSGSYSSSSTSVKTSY

[4] = molecular target: T4, wild-type mouse C140 receptor (mouse, UniProt P55086 32-399)
T4 sequence: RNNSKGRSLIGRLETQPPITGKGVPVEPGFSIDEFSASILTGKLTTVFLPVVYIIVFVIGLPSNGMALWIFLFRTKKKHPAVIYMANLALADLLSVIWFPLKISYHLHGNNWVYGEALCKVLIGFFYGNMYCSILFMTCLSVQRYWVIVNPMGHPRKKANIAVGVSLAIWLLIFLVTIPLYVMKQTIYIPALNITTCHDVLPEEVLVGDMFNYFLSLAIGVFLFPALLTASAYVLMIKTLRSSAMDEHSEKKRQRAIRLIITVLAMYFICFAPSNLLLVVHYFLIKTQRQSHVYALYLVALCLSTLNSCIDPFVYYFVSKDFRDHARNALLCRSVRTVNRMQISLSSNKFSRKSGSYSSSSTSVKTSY

[5] = molecular target: T4, wild-type mouse C140 receptor; remark: listed apart in the source
[6] = molecular target: T4, wild-type mouse C140 receptor; remark: listed apart in the source

Fold Increase in 45Ca [5]	other results	Molecule
–	Fold increase in 45Ca [1]: 0 fold; Fold increase in 45Ca [2]: 0 fold; Fold increase in 45Ca [3]: 0 fold; Fold increase in 45Ca [4]: 6.6 fold	trypsin (enzyme)
8.5 fold	–	SLIGRA [peptide SLIGRA]
0 fold	–	SLIGAL [peptide SLIGAL]
4.3 fold	–	SLIARL [peptide SLIARL]
0 fold	–	SLAGRL [peptide SLAGRL]
0 fold	–	SAIGRL [peptide SAIGRL]
1.3 fold	–	ALIGRL [peptide ALIGRL]
1.7 fold	–	SFFLRW [thrombin receptor agonist SFFLRW]
15 fold	Fold Increase in 45Ca [1]: 15 fold; Fold Increase in 45Ca [6]: 11 fold; Fold Increase in 45Ca [2]: 23 fold; Fold Increase in 45Ca [3]: 23 fold	SLIGRL [agonist peptide SLIGRL]
